# Data taken from publication PMC7337054, “Structural basis for differentiation between two classes of thiolase: Degradative vs biosynthetic thiolase” (Journal of Structural Biology: X, 2020).
# Substrate: CC(=O)CC(=O)SCCNC(=O)CCNC(=O)[C@H](O)C(C)(C)COP(=O)(O)OP(=O)(O)OC[C@H]1O[C@@H](n2cnc3c(N)ncnc32)[C@H](O)[C@@H]1OP(=O)(O)O
# Assay: purified protein
# Type: biochemical, Pseudomonas putida
# Details: thiolytic cleavage, 70 μM CoASH, 25 mM MgCl2, 0.1 M Tris-HCl pH 8.3, 37 °C
protein,measurement,value
"PcaF (β-ketoadipyl-CoA thiolase) (Pseudomonas putida KT2440) (protein, full length, 400 residues plus 22 vector residues; N-terminal His-tag with TEV site, pSGC-His, E. coli BL21(DE3) pLysS; tetramer) MHDVFICDAIRTPIGRFGGALASVRADDLAAVPLKALIERNPGVQWDQVDEVFFGCANQAGEDNRNVARMALLLAGLPESIPGVTLNRLCASGMDAVGTAFRAIASGEMELVIAGGVESMSRAPFVMGKAESAYSRNMKLEDTTIGWRFINPLMKSQYGVDSMPETADNVADDYQVSRADQDAFALRSQQKAAAAQAAGFFAEEIVPVRIAHKKGEIIVERDEHLRPETTLEALTKLKPVNGPDKTVTAGNASGVNDGAAAMILASAAAVKKHGLTPRARVLGMASGGVAPRVMGIGPVPAVRKLTERLGIAVSDFDVIELNEAFASQGLAVLRELGVADDAPQVNPNGGAIALGHPLGMSGARLVLTALHQLEKSGGRKGLATMCVGVGQGLALAIERV",Km,67.8 ± 8.2 µM
same,kcat,0.7 ± 0.08 S^−1
